localisation_or_trafficking data for five substances are collected here from publication PMC11316045.

Series [1] is described as follows: FACS of cell surface PD-L1, H460. To be noted: glycan lost; control: wild type.
A short description of series [2]: anti-Flag immunofluorescence, also with HSP90B1/DAPI co-staining. To be noted: glycan lost; control: wild type.
Series [3] can be described thus: anti-Flag immunofluorescence, H460 and PD-L1 KO cells. Conditions: glycan lost; control: untreated.

On to PD-L1: N35Q, for which the localisation_or_trafficking result in series [1] and in series [2] was “no change” each time.

Regarding PD-L1: N200Q, the localisation_or_trafficking entry in series [1] and in series [2] was “no change” in each case.

As for PD-L1: N219Q, the localisation_or_trafficking entry in series [1] is recorded as “decreases”; in series [2] it was “changes”.

Consider PD-L1: N192Q, for which the localisation_or_trafficking entry in series [1] and in series [2] was “no change” throughout.

With PD-L1: tunicamycin (5μg/ml), in series [3], the localisation_or_trafficking entry was “changes”.
